Assays:
[1] = molecular target: GARP Y137H/S138G/G139N / TGF-β1 complex (human, UniProt Q14392 20-662; P01137 30-390); assay: FACS 293T, 5 ug/ml, normalised to anti-HA
Description: (§1) Resolution of the crystal structure of MHG-8 Fab/GARP/TGF-β1 complexes and analysis with the CONTACT software allowed the identification of 22 amino-acids in GARP, 8 amino-acids in LAP and 6 amino-acids in mature TGF-β1 that are located less than 5 Å away from an amino-acid of the light or heavy chain of the MHG-8 Fab (Tables 7a, b and c, and Table 8). Directed mutagenesis was used to construct plasmids encoding HA-tagged forms of GARP or TGF-β1 that are mutated at one, two, or three of these 36 positions (all mutations constructed are indicated in Table 8). […] Antibodies were used at a saturating concentration of 5 μg/ml for labeling. Binding of each antibody to a given mutant GARP/TGF-β1 complex was compared to their binding to wild type (WT) complexes, by determining an I_{m/wt} value (i.e. intensity of binding to mutant by comparison to WT). This value was calculated as follows: I_{m/wt} of antibody X=[Geom on mutant−Geom on control]/[Geom on WT−Geom on control]
(§2) The level of residual binding of anti-GARP or anti-LAP antibodies to each mutant was then calculated by comparison to WT, taking into account the expression levels of mutant and WT forms as measured with anti-HA antibodies. Residual binding was calculated as follows: Residual binding by an anti-GARP or anti-LAP antibody=[I_{m/wt} with anti-GARP or anti-LAP antibody]/[I_{m/wt} with anti-HA antibody]

[2] = molecular target: GARP / TGF-β1 Y336A complex (human, UniProt Q14392 20-662; P01137 30-390); assay: FACS 293T, 5 ug/ml, normalised to anti-HA
GARP / TGF-β1 Y336A complex, sequence (Q14392 20-662 limits assumed, chain 1 of 2): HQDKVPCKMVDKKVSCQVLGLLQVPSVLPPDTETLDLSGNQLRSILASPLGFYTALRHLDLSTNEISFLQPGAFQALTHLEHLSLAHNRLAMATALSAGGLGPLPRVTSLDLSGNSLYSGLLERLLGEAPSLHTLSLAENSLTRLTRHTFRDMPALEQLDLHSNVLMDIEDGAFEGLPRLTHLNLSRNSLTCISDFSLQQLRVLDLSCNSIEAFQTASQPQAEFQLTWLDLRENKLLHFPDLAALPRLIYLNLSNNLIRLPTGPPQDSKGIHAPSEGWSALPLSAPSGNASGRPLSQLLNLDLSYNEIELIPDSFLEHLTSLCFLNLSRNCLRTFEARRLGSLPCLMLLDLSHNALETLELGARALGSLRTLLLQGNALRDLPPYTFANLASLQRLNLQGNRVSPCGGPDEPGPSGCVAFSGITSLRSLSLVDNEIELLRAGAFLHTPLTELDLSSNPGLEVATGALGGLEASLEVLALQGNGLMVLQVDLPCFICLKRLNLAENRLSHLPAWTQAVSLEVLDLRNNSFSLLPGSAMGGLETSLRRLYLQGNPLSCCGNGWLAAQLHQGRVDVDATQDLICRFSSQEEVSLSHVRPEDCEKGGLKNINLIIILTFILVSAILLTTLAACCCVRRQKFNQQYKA
GARP / TGF-β1 Y336A complex, sequence (P01137 30-390 Y336A limits assumed, chain 2 of 2): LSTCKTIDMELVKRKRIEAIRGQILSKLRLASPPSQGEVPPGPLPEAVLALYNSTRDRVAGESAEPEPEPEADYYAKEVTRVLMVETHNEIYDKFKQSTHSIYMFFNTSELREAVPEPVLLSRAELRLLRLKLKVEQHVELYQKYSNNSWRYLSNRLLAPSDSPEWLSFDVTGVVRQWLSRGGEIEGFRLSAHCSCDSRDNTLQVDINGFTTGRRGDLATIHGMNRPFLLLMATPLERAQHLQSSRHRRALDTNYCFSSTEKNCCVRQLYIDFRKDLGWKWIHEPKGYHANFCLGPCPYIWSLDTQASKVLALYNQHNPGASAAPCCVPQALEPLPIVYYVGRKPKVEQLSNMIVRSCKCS
Description: as §1, §2

[3] = molecular target: T1, GARP / TGF-β1 K338E complex (human, UniProt Q14392 20-662; P01137 30-390); assay: FACS 293T, 5 ug/ml, normalised to anti-HA
T1 sequence (Q14392 20-662 limits assumed, chain 1 of 2): as the sequence (Q14392 20-662 limits assumed, chain 1 of 2) above
T1 sequence (P01137 30-390 K338E limits assumed, chain 2 of 2): as the sequence (P01137 30-390 Y336A limits assumed, chain 2 of 2) above, with A307Y, K309E counted along it
Description: as §1, §2

[4] = molecular target: GARP S116N / TGF-β1 complex (human, UniProt Q14392 20-662; P01137 30-390); assay: flow cytometry on transfected 293T cells, 5 ug/ml; grade of Loss of binding read by footnote 2
Description: as §1, §2

[5] = molecular target: GARP A117R / TGF-β1 complex (human, UniProt Q14392 20-662; P01137 30-390); assay: as above
Description: as §1, §2

[6] = molecular target: GARP G118L/G119L / TGF-β1 complex (human, UniProt Q14392 20-662; P01137 30-390); assay: as above
Description: as §1, §2

[7] = molecular target: GARP S138G / TGF-β1 complex (human, UniProt Q14392 20-662; P01137 30-390); assay: as above
Description: as §1, §2

[8] = molecular target: GARP L140K/E142L / TGF-β1 complex (human, UniProt Q14392 20-662; P01137 30-390); assay: as above
Description: as §1, §2

[9] = molecular target: GARP T162D / TGF-β1 complex (human, UniProt Q14392 20-662; P01137 30-390); assay: as above
Description: as §1, §2

[10] = molecular target: GARP R163E / TGF-β1 complex (human, UniProt Q14392 20-662; P01137 30-390); assay: as above
Description: as §1, §2

[11] = molecular target: GARP R163A/T165A / TGF-β1 complex (human, UniProt Q14392 20-662; P01137 30-390); assay: as above
Description: as §1, §2

[12] = molecular target: GARP T165A / TGF-β1 complex (human, UniProt Q14392 20-662; P01137 30-390); assay: as above
Description: as §1, §2

[13] = molecular target: GARP R170A / TGF-β1 complex (human, UniProt Q14392 20-662; P01137 30-390); assay: as above
Description: as §1, §2

[14] = molecular target: GARP E189A / TGF-β1 complex (human, UniProt Q14392 20-662; P01137 30-390); assay: as above
Description: as §1, §2

[15] = molecular target: GARP / TGF-β1 E146R complex (human, UniProt Q14392 20-662; P01137 30-390); assay: as above
GARP / TGF-β1 E146R complex, sequence (Q14392 20-662 limits assumed, chain 1 of 2): as the sequence (Q14392 20-662 limits assumed, chain 1 of 2) above
GARP / TGF-β1 E146R complex, sequence (P01137 30-390 E146R limits assumed, chain 2 of 2): as the sequence (P01137 30-390 Y336A limits assumed, chain 2 of 2) above, with E117R, A307Y counted along it
Description: as §1, §2

[16] = molecular target: GARP / TGF-β1 Q269Y complex (human, UniProt Q14392 20-662; P01137 30-390); assay: as above
Description: as §1, §2

[17] = molecular target: T1, GARP / TGF-β1 K338E complex; assay: as above
Description: as §1, §2

[18] = molecular target: GARP / TGF-β1 A341Y complex (human, UniProt Q14392 20-662; P01137 30-390); assay: as above
GARP / TGF-β1 A341Y complex, sequence (Q14392 20-662 limits assumed, chain 1 of 2): as the sequence (Q14392 20-662 limits assumed, chain 1 of 2) above
GARP / TGF-β1 A341Y complex, sequence (P01137 30-390 A341Y limits assumed, chain 2 of 2): as the sequence (P01137 30-390 Y336A limits assumed, chain 2 of 2) above, with A307Y, A312Y counted along it
Description: as §1, §2

[19] = molecular target: GARP / TGF-β1 Q345A complex (human, UniProt Q14392 20-662; P01137 30-390); assay: as above
Description: as §1, §2

B1: LHG-10 (antibody, human IgG1, V domains shown)
VH: EVQLVQPGAELRNSGASVKVSCKASGYRFTSYYIDWVRQAPGQGLEWMGRIDPEDGGTKYAQKFQGRVTFTADTSTSTAYVELSSLRSEDTAVYYCARNEWETVVVGDLMYEYEYWGQGTQVTVSS
VL: DIQMTQSPTSLSASLGDRVTITCQASQSISSYLAWYQQKPGQAPKLLIYGASRLQTGVPSRFSGSGSGTSFTLTISGLEAEDAGTYYCQQYDSLPVTFGQGTKVELK
notes: llama-derived V regions in a full human IgG1
< 50%: residual binding on mutant by comparison to WT [9] | residual binding on mutant by comparison to WT [10] | residual binding on mutant by comparison to WT [17]
≥ 50%: residual binding on mutant by comparison to WT [4] | residual binding on mutant by comparison to WT [5] | residual binding on mutant by comparison to WT [6] | residual binding on mutant by comparison to WT [7] | residual binding on mutant by comparison to WT [8] | residual binding on mutant by comparison to WT [11] | residual binding on mutant by comparison to WT [12] | residual binding on mutant by comparison to WT [13] | residual binding on mutant by comparison to WT [14] | residual binding on mutant by comparison to WT [15] | residual binding on mutant by comparison to WT [16] | residual binding on mutant by comparison to WT [18] | residual binding on mutant by comparison to WT [19]
6%: residual binding (% of WT) [1]
56%: residual binding (% of WT) [2]
15%: residual binding (% of WT) [3]
